Molecular target: FXR1P Nt-KH2–His6 (human)
Assay: SAXS

stoichiometry N: 2
Substance: FXR1P Nt-KH2–His6 (domain or fragment)

Reference: paper PMC2662490
